Experiment: soluble on expression in E. coli; label from the status in PepcDB or PDB records

Sequence | soluble on expression in E. coli
MSLSQAHFSSWRGHQEFLAPHLIEGRAVRAFIGWAGVMIYDPTLDVIALAKEYARQYQCFAETCGRCAPGKFGGKILFDLLEKIDQGRGEESDLERLVEVGKLMMTTSKCEVGKTTPLPILDLLEAYRPLFVEALGNRSRKERSKKERYIAKITAPCIDACPAHVDIPAYIEGVRDHLLGDSLAATRKSMPLAQVCGRVCPHPCESACRRGDLDEPISIMELKRLGADYEKERHGGFIHPYPPKPRRKDKRVAIIGAGPAGLSSAYYLALEGIMSDVFEALPVLGGEVSVGVPEYRMPIDRYYHDIEAIKSLGVSFWTNHFVSAKELDEMRQKYDAIILATGARISKKLGVKGEEESLGGYAPAIPWLDQINLATKFNLAALPDLRGKSVVCVGGGFTSMDVVRCAVRLGAKRIVMLYRRDEATLIQNTSKEEYHEALEEGVEFLFQCAVQEIKSCGGEIKALLVEEYEVVYEEGARKPSLRRIEREPLFLECDLLIPAVSQEVDRSFIPKEWNLESTSWGSFKTNGKDFSTTLRGVFAAGDCEKGPLTIVNAVGQGKRAASVVSRFLEDGEITLTPEEEMEDWLKKEGVYDRSMPVVGWLAGLVRQESHKEEPLKRREDFREVNQGLSMQEAFAESERCMRCYYISMVALEGHHHHHH | not soluble
MSLSQAVSSPLYAAIDLGSNSFHMLVVRHIDGSVQTMAKIKRKVRLAAGLDEHNALSLDAMQRGWDCLSLFAERLQDIPAENIRIVGTATLRTATNAGEFIAKANQILGHPIDVISGEEEAATIYKGVAHTSGGLGRRLVVDIGGASTELIIGEGFEAKALTSLKMGCVTWLERHFKDRQLTATNFNNAILAAKQMLDPILTQYTELGWNVCVGASGTVQALQEIMLAQGMDEVITLTKLKRLQKQAMLADHLEELDIEGLTLERALVFPSGLSILIAIFESLNIEAMTLAGGALREGLVYEMVQDLRQEDIRARTIRCVQTRYQIDSAYGDQVATLASKLLAQCGGEAWINEPQAEMLLRTAAKLHEIGLTIDFKKGGEHSAYLLQHLDLPGYTRAQKHYLGEIVRRYREQLTSLPEQYALSGTSGKRVLRLLRLAVLLSHRRSPALEPMVELSAQEDKLTLTLDGEWLAKNPLTRTELELEANRQTDIGWPLSIECHEGGSHHHHHH | soluble
MSLSQPQPPSRLLVMKFGGTNMQSAHAIRHSASLAGRSVREGVKVVVVVSAMAGVTNGLLHLADAAQSGDIARANDEIAALRTRHFTAAQELGAAPDSETVRELRELHETLRQAVYGVYLLRELTPRSRDLIVAFGERLSAPLMSLALEQSGLRARHLTGGEAGILTDTNFGNARPLPGTYERVGDRLSGFLSAGVTPVIAGFMGETEQGAITTLGRGGTDFSATIVGKALGADEVWAWKDVDGVMSADPRVVGDASNIGVLSYGEVMELAYFGAKVLHPLAVTPLQDSGIPLRVKSAADPDFAGTLVRSQAEEIPGRPVKAVTAIKNVSLLTVTGAGVLGVPEVIASVFTAIARENITLLMVSQSSSMSNVSLAVPSADAARALQALRAGLSSELNVEETNGVAVLAIVGSGMRGQQGVSARLFTALASEDINILMISQGSSELNISVALSGEEVDRATAAVHAAFTLSQPEGHHHHHH | not soluble
MSLSRKYFGTDGIRGRVGEFPITPDFVLKLGWAVGMAFRRQGNCRVLIGKDTRSSGYMFESAFEAGLSASGADTLLLGPMPTPGIAYLTRTFHAEAGVVISASHNPHDDNGIKFFSGQGTKLPDDVELMIEELLDAPMTVVESARLGKVSRINDAAGRYIEFCKSSVPTSTDFNGLKVVLDCANGATYKIAPSVFRELGAEVTVLAASPNGLNINDKCGSTHLDGLQAAVVEHHADLGIAFDGDGDRVMMVDHTGAVVDGDELLFLIARDLQESGRLQGGVVGTLMSNLGLELALQELHIPFVRAKVGDRYVMAELLARNWMLGGENSGHIVCCQNTTTGDAIIAALQVLMALKHRGQTLAEARQGIRKCPQVLINVRFKGENDPLEHPSVKEASVRVTEQMGGRGRVLLRKSGTEPLVRVMVEGDEEASVRAHAEQLAKIVSEVCAEGHHHHHH | soluble
MSLSSAQQWSYVRQLQREIRRSDVLDLPLEKLPVVVFDLETSGFYPDQGDRILSIGAVKVVGLTIQEEETFYSVVHTDTVPPENILELTGLSVEELEAAPPLTSVLESFYAFIRHSTLVAHHASHEKAFMSHVTWQTMKLPFEHRVIDTSFLTKIVAPQELVTLDDCCAYYSIPVQNRHHAFEDSLMTAKLWIAAIAAAREAGEGHHHHHH | not soluble
MSLSSPQFEENSFECPVEIGISNMCGKRDSMQDTSVVITNFLGIGFHLLSLFDGHSGIYSSCFCASQFPNCFANILSKNPQQSIEDALIHSFKEMNQKINEYKFNDGTAANVVLITPQRYFIANVGDSRCILVKKDSIIILNEDHTINNPDEVQRIRKLNGFIDHSKVNGEIVLTRTLGDIQCSSVCSCIPQITCHERGIDDICIVLCCDGVFDVLSNELVGEICRKKSNESASVLSSLIRDIAYNNGCKDNISCIVCKLMSEGHHHHHH | soluble
MSLSSVYTMKRIWLQKDKKAYQAWHELMEKAELQTTEALDYTVGIYDDTALIASGSLSGKTIKCVAVCKKYQSENLLTQLVVHLLEKLREENQLHSFLYTKPKNEQIFQSLGFQKVVANQEVLFMEQGKPDFADYLGYLTQHKKAGPASSIVMNANPFTKGHQYLVEKAAQESPHVYVFVLSEDKSLFSKEARFAMVQKGVAHLPNVTVLSTEDYLVSSATFPTYFLKEKAPLEVAAIQATLDATLFKERIAPILEIQQRYVGEEPYSEVTAVYNQAMQQVFGQTITLTIVPRLASDGELISATKVRKAMAEGDKETLKKFLPATSYQYLVEHKKLMREGGSHHHHHH | soluble
MSLSSYTVLAVDDSEINLKLIVHTLQPFGFQIFTAESAADARNVLLTNRVDVLLLDVSMPDQDGFSFCRELREIERFKLLPILFITGINREVGFDEAISHGGDDFIQKPFQPKELIAKIRAFIRIKILQDELLEQKKNYERELIMARKVQQELLPEKELEWNGVSLSTIFQPLMQIGGDYTDAWIEDDSLHIFIADCSGHGPSAALLAAMLKMQVSSLSPDQSLQEKVQTLRHNLEKILPDEFSITFFYGILHKDLSFEYSNGGHPAPMLYQNGEVSILPGMGPLIIPIEINVKEEFKSVQLQKDSYMLLYTDGATEISDKSMNILGEDKLKKIFQESVSIGGDILVSMMESILAHSDRGTNDDDIAMMVLKLEGHHHHHH | soluble
MSLSTARIMLVDDHPIVREGYRRLIERRPGYAVVAEAADAGEAYRLYRETTPDIVVMDLTLPGPGGIEATRHIRQWDGAARILIFTMHQGSAFALKAFEAGASGYVTKSSDPAELVQAIEAILAGRRAMSPDIAQEIAEERVEGRATAIADLSPRETEILRMLASGMTSDEIAAGLCLSVKTVQNNHYQIKAKLGARTDAHLVWVAIEAGLVREGHHHHHH | soluble
MSLSTMLVAEDLSAVGGISLSSALPVLTAMQYDVAALPTSLLSTHTSGYGTPAVVDLSTWLPQVFAHWTRAQLHFDQALIGYVGSVALCQQITTYLEQQTLSLLVVDPVLGDLGQLYQGFDQDYVAAMRQLIQQADVILPNTTEAALLTGAPYQVTPDLEVILPALQAQLKTGAHAVITDVQRADQIGCAWLDEAGHVQYCGARRLPGHYNGTGDTLAAVIAGLLGRGYPLAPTLARANQWLNMAVAETIAQNRTDDRQGVALGDLLQAILALNEGHHHHHH | soluble
MSLSVSDELQLFAQEIQRFLSPNTLRNLARDVGFVQRTSKYQAKDLVALCVWMNQNIATTSLTQLSSCLEASTEVLISPEGLNQRFNKAAVQFLQHILAELLSRKLTSSIPISSPYTSVFKRIRILDSTAFQLPDVFSSVYPGAGGCSHTAGIKIQLEYDLLSGQFLHIHTGPGKQHDRTYGSLCAPTVTANDLCIRDLGYFHLKDLQYIQDKEAYYISRIKSNTRMYQKNPNPDYFQDGRIKKGTEYIQIDIETLMNSLQPGQTCEVADAYVGMNDKVPARVIVHRLTKQQQQKRLQDQAVREKKKGMKYSPRSKRLSGINVYMTNTPTDIVPMGQVHDWYSLRWQIEILFKTWKSFFQIHHCKKIKAERLECHLYGQLIAILLCSSIMFQMRQLLLMKKKRELSEYKAIYMIKDYFLLLFQTIQKNTQELSKVLLRLFNLLQQNGRKSHRYEKKTVFDILGVVYNSMSDNQAEGHHHHHH | not soluble
MSLTAQIRLAEPADLNDDTLRARAVAAARGDQRFDVLITGGTLVDVVTGELRPADIGIVGALIASVHEPASRRDAAQVIDAGGAYVSPGLIDTHMHIESSMITPAAYAAAVVARGVTTIVWDPHEFGNVHGVDGVRWAAKAIENLPLRAILLAPSCVPSAPGLERGGADFDAAILADLLSWPEIGGIAEIMNMRGVIERDPRMSGIVQAGLAAEKLVCGHARGLKNADLNAFMAAGVSSDHELVSGEDLMAKLRAGLTIELRGSHDHLLPEFVAALNTLGHLPQTVTLCTDDVFPDDLLQGGGLDDVVRRLVRYGLKPEWALRAATLNAAQRLGRSDLGLIAAGRRADIVVFEDLNGFSARHVLASGRAVAEGGRMLVDIPTCDTTVLKGSMKLPLRMANDFLVKSQGAKVRLATIDRPRFTQWGETEADVKDGFVVPPEGATMISVTHRHGMAEPTTKTGFLTGWGRWNGAFATTVSHDSHNLTVFGGNAGDMALAANAVIGTGGGMAVASEGKVTAILPLPLSGLVSDAPLEEVARAFEDLREAVGKVVEWQPPYLVFKACFGATLACNIGPHQTDMGIADVLTGKVMESPVIEVLGEGHHHHHH | soluble
MSLTARIDQLLLERLKSAGVEPAPAADDGEFLRRAYLDLSGTIPPVAITRDYLADSSPAKRRQLIERLLASPAFASHLASTWREIILKPTDDFQQLQNQFALQAWLREQFSENARYDRIVEQFITASSEQDGPVYFYDALDLKPEQLAAETSRIFLGLHIQCAECHDHPFDDWKQRDFWGYAAFFARVAKRDSAMGRISEGHHHHHH | soluble
MSLTDLNRTDLNRTDLNRTDLNRTDLNRTALPSRTDGTVEKTDTLVVGAGQAGVAMSEHLSRLGVPHLVLERNRIAEAWRSGRWDSLVANGPAWHDRFPGMEFDIDPDGFPGKDQVAAYFEAYAKKFDAPIRTGVEVRKVVRNVGRPGFTVETSAGTIEANRVVAATGPFQRPVIPPIAPRDERIRQIHSAHYYNPQQLPEGAVLVVGAGSSGVQIADELQRAGRQVYLSVGAHDRPPRSYRNRDFCWWLGVLGEWDAEVAKPGREHVTIAVSGARGGHTVDFRALAHQGVTLVGLTESFVDGVATFRPDLAENLARGDENYLALLDAADAYIARNGLDLPEEPEARRRLPDPQCVTDPILELDLAEAGVGSIIWATGYAVDFGWLQVDAFDRDGKPRHQRGVSSEPGVYFIGLPWLSRRGSSFIWGVWHDARHVADHIAIQRKYLAYRDAAQRQEQDRASQAPQTSLQEVSEGHHHHHH | soluble
MSLTEKVSVFALGGAGEIGKNMYVVELDEDIFVIDAGLMFPGDEMLGIDKVIPDISYLKENKERIQGIFITHGHEDHIGALSYVLRDLKVPVYGTRLTLGLIEIKLKEAGLLKKADLRPIDAKTKLTVAGHFITFFRVNHSIPDAVGVCIQTSQGAIVHTGDFKFDYTPVDGKQADFGKIAAIGQRGVLCLLSDSTNAERPGMSGSESTVGSELNDVIYEAPGRVIVASFASNVHRLQQVFAAAEANNEGHHHHHH | soluble
MSLTELSAFPITRKWPAKHPERLQLYSLPTPNGVKVSIMLEEIGLAYEAHKVSFDNDDQLSPEFISLSANNKIPAILDPNGPGGQPLALFESGAILQYLAEKSGQLLSQDPAQRYQTLQWLMFQMGGIGPMFGQVGFFHFFAGKEYEDKRPRDRYVNESKRLLGVLDRHLKGRQWMAEEYSIADIAIFPWVRNLVERYNARDLVGFDQFKEVQRVLANFLERPAVQRGLKIPGEGHHHHHH | soluble
MSLTELYAKSDLEKIKETLPGWQLDSFNYLNEKIGDKENKFPCIPGRQAFLSDQLRIAFVGDPRNPETAKELAPLLTRYGTISRETGKYASLTVIFHTPEELLTDYKIEDYESLFWQLLNSLSMEDPADWPDDIPENPDNFQWEYCFNGEPYFVLCATPAHSKRKSRSFPYFMLTFQPRWVFEDLNDTTAFGRNMSKQIRKRLEAYDEVPIHPHLGWYGKKDNLEWKQYFLRDDENQVSQCPFMKMKNLFKKERSDEGHHHHHH | soluble
